Laboratory results published in patent US20090087417A1, “METHODS FOR PROMOTING DOPAMINERGIC NEURONAL DEVELOPMENT BY USING NG4A-SUBFAMILY AND WNT-LIGANDS” (priority 2002, published 2009).

Test system: E14.5 VM precursor cultures
Assay: Real time RT-PCR of gene expression in Wnt-treated VM precursor cultures
Format: cell-based, rat
Conditions: 3 days in vitro
Description: Total RNA was isolated from confluent T1A astrocyte cultures derived from ventral mesencephalon, dorsal mesencephalon and cortex of P1 rats and from tissue dissected from E10.5, E11.5, E13.5, E15.5 and P1 ventral and dorsal mesencephalon, and E14, E16, E18 and P1 cortex, using RNeasy extraction kit (Qiagen, Hilden, Germany). Total RNA was also extracted from E14.5 VM precursor cultures (7.5 million cells in 100 mm dishes) treated with wnts for 3 days in vitro (triplicate determination). For the reverse transcription, […] of total RNA was initially treated with 1 unit RQ1 Rnase-free DNAse (Promega, Madison, USA) for 40 minutes. The DNAse was inactivated by the addition of 1 μl of EDTA 0.02M and incubation at 65° C. for 10 minutes. 0.5 μg random primers (Life Technologies, Grand Island, N.Y., USA) were then added, and the mixture was incubated at 70° C. for 10 minutes. Each sample was then equally divided in two tubes, a cDNA reaction tube and a negative control tube. A master mix containing 1× First-Strand Buffer (Life Technologies, Grand Island, N.Y., USA), 0.01M DTT (Life Technologies, Grand Island, N.Y., USA) and 0.5 mM dNTPS (Promega, Madison, USA) was then added to both cDNA and RT− tubes and incubated at 25° C. for 10 minutes, followed by a 2 minutes incubation at 42° C. 200 units of Superscript II reverse transcriptase (Life Technologies, Grand Island, N.Y., USA) were then added only to the cDNA tubes and all sample were incubated at 42° C. for 50 minutes. Superscript II was inactivated with an incubation for 10 minutes at 70° C. Both cDNA and RT− were then diluted 10 times, for further analysis.
Real-time PCR was performed in triplicates, with 1 μl 1:10 diluted cDNA and RT−, in a total volume of 25 μl. Each PCR reaction consisted on 1×PCR buffer (Life Technologies, Grand Island, N.Y., USA), 3 mM MgCl2 (Life Technologies, Grand Island, N.Y., USA), 0.2 mM dNTPs (Promega, Madison, USA), 0.3 μM each of the forward and reverse primers, 1 unit Platinum Taq DNA polymerase (Life Technologies, Grand Island, N.Y., USA) and 1×SYBR Green (Molecular Probes, Leiden, The Netherlands). The PCR was performed at 94° C. for 2 min and then for 35-40 cycles at 94° C. for 30 s, at 60° C. for 30-45 s, at 72° C. for 45-60 s and at 80° C. for 15 s (for SYBR Green detection) on the ABI PRISM 5700 Detection System (PE Applied Biosystems, Foster City, Calif., USA). Other annealing temperatures included 54° C. for Wnt 5a, 57° C. for p27, 62° C. for Cyclin D1, 61° C. for Cyclin D2 and 65° C. for p57. A melting curve was obtained for each PCR product after each run, in order to confirm that the SYBR Green signal corresponded to a unique and specific amplicon. The specificity of the PCR product was verified by sequencing.
Standard curves were generated in every 96-wells plate real time PCR run, using serial 3-fold dilutions of a reverse transcribed RNA or plasmid containing the sequence of interest for every probe. The resulting standard curve plots were then used to convert the Cts (number of PCR cycles needed for a given template to be amplified to an established fluorescence threshold) into arbitrary quantities of initial template of a given sample.
The expression levels were obtained by subtracting the RT− value for each sample from the corresponding RT+ value and then dividing that number by the value of the house-keeping gene, 18S, obtained for every sample in parallel assays.
Statistical analysis of the results was performed by one way ANOVA. Fisher's protected least significant difference was used post hoc to identify specific points at which the different developmental stages differed from the earliest, only when significant interactions occurred. Significance for all tests was assumed at the level of p<0.05 (*p<0.05; **p<0.001; ***p<0.000).

Row | Molecule | cyclin D1 mRNA | cyclin D2 mRNA | cyclin D3 mRNA | p27 mRNA | p57 mRNA | c-ret expression | expression of GFR[…]1 | expression of NCAM | p21 mRNA expression | Ptx3 mRNA
1 | Wnt-7a: Partially purified / conditioned media from Wnt-7a overexpressing fibroblast cell line (protein, UniProt P24383 32-349, looked up, conditioned medium, Partially purified / conditioned media from Wnt-7a overexpressing fibroblast cell line) Protein Wnt-7a: LGASIICNKIPGLAPRQRAICQSRPDAIIVIGEGSQMGLDECQFQFRNGRWNCSALGERTVFGKELKVGSREAAFTYAIIAAGVAHAITAACTQGNLSDCGCDKEKQGQYHRDEGWKWGGCSADIRYGIGFAKVFVDAREIKQNARTLMNLHNNEAGRKILEENMKLECKCHGVSGSCTTKTCWTTLPQFRELGYVLKDKYNEAVHVEPVRASRNKRPTFLKIKKPLSYRKPMDTDLVYIEKSPNYCEEDPVTGSVGTQGRACNKTAPQASGCDLMCCGRGYNTHQYARVWQCNCKFHWCCYVKCNTCSERTEMYTCK | increased | not regulated | No regulation | decreased | decreased |  |  |  |  | 
2 | Wnt-2: Partially purified / conditioned media from Wnt-2 overexpressing fibroblast cell line (protein, UniProt P21552 26-360, looked up, conditioned medium, Partially purified / conditioned media from Wnt-2 overexpressing fibroblast cell line) Protein Wnt-2: SWWYMRATGGSSRVMCDNVPGLVSRQRQLCHRHPDVMRAIGLGVAEWTAECQHQFRQHRWNCNTLDRDHSLFGRVLLRSSRESAFVYAISSAGVVFAITRACSQGELKSCSCDPKKKGSAKDSKGTFDWGGCSDNIDYGIKFARAFVDAKERKGKDARALMNLHNNRAGRKAVKRFLKQECKCHGVSGSCTLRTCWLAMADFRKTGDYLWRKYNGAIQVVMNQDGTGFTVANKRFKKPTKNDLVYFENSPDYCIRDREAGSLGTAGRVCNLTSRGMDSCEVMCCGRGYDTSHVTRMTKCECKFHWCCAVRCQDCLEALDVHTCKAPKSADWATPT | slight upregulation | increases | No regulation | increases | increases |  |  |  |  | 
3 | Wnt-1: Partially purified conditioned media from stable fibroblast cell line engineered to secrete Wnt-1 ligand (protein, left off: small tags and cut ends) ANSSGRWWGIVNIASSTNLLTDSKSLQLVLEPSLQLLSRKQRRLIRQNPGILHSVSGGLQSAVRECKWQFRNRRWNCPTAPGPHLFGKIVNRGCRETAFIFAITSAGVTHSVARSCSEGSIESCTCDYRRRGPGGPDWHWGGCSDNIDFGRLFGREFVDSGEKGRDLRFLMNLHNNEAGRTTVFSEMRQECKCHGMSGSCTVRTCWMRLPTLRAVGDVLRDRFDGASRVLYGNRGSNRASRAELLRLEPEDPAHKPPSPHDLVYFEKSPNFCTYSGRLGTAGTAGRACNSSSPALDGCELLCCGRGHRTRTQRVTERCNCTFHWCCHVSCRNCTHTRVLHECL | upregulated | not affected | upregulated | downregulated | downregulated | not | repressed | repressed | neither affected | 
4 | Wnt-5a: Partially purified conditioned media from stable fibroblast cell line engineered to secrete Wnt-5a ligand (protein, left off: small tags and cut ends) IIGAQPLCSQLAGLSQGQKKLCHLYQDHMQYIGEGAKTGIKECQYQFRHRRWNCSTVDNTSVFGRVMQIGSRETAFTYAVSAAGVVNAMSRACREGELSTCGCSRAARPKDLPRDWLWGGCGDNIDYGYRFAKEFVDARERERIHAKGSYESARILMNLHNNEAGRRTVYNLADVACKCHGVSGSCSLKTCWLQLADFRKVGDALKEKYDSAAAMRLNSRGKLVQVNSRFNSPTTQDLVYIDPSPDYCVRNESTGSLGTQGRLCNKTSEGMDGCELMCCGRGYDQFKTVQTERCHCKFHWCCYVKCKKCTEIVDQFVCK | not | not affected | not |  | not | upregulated | maintained | maintained | neither affected | increased
